Test results as given in paper PMC4466236, “A Novel AT-Rich DNA Recognition Mechanism for Bacterial Xenogeneic Silencer MvaT”.

Key:
[1] = biological target: T1, MvaT (Pseudomonas aeruginosa PAO1) (UniProt Q9HW86)
T1 sequence: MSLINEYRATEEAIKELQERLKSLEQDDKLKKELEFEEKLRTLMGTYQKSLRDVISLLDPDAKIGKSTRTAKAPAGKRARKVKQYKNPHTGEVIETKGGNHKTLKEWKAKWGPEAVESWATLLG

[2] = biological target: T2, MvaT full-length (Pseudomonas aeruginosa PAO1?) (UniProt Q9HW86); experiment: EMSA; details: EMSA: 8 mM Tris pH 8.0, 15 mM HEPES pH 7.9, 40 mM NaCl, 40 mM KCl, 1.4 mM EDTA, 0.5 mM DTT, 9.95% glycerol, room temp, NMR: 50 mM Na phosphate, 50 mM NaCl
T2 sequence: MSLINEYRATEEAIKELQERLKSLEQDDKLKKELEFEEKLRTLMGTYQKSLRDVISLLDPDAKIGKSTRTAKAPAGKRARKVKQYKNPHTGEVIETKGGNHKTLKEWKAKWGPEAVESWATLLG

[3] = tested on: MvaT full-length (Pseudomonas aeruginosa PAO1?); experiment: EMSA; details: EMSA: 8 mM Tris pH 8.0, 15 mM HEPES pH 7.9, 40 mM NaCl, 40 mM KCl, 1.4 mM EDTA, 0.5 mM DTT, 9.95% glycerol, room temp, NMR: 50 mM Na phosphate, 50 mM NaCl
[4] = tested on: MvaT full-length (Pseudomonas aeruginosa PAO1?); experiment: competition; details: EMSA: 8 mM Tris pH 8.0, 15 mM HEPES pH 7.9, 40 mM NaCl, 40 mM KCl, 1.4 mM EDTA, 0.5 mM DTT, 9.95% glycerol, room temp, NMR: 50 mM Na phosphate, 50 mM NaCl
[5] = biological target: T3, MvaTctd K108A (Pseudomonas aeruginosa PAO1, UniProt Q9HW86 77-124, K108A); experiment: ITC; 283 K; EMSA: 8 mM Tris pH 8.0, 15 mM HEPES pH 7.9, 40 mM NaCl, 40 mM KCl, 1.4 mM EDTA, 0.5 mM DTT, 9.95% glycerol, room temp; NMR: 50 mM Na phosphate, 50 mM NaCl, pH 6.0, 298 K; ITC: 283 K, 0.15 mM DNA in cell, buffer not stated (protein purified in NMR buffer); details: protein: recombinant; tags: C-terminal His6; blunt, self-complementary
T3 chain: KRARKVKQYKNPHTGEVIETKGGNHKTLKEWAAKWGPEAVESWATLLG

[6] = biological target: T4, MvaTctd K102A (Pseudomonas aeruginosa PAO1, UniProt Q9HW86 77-124, K102A); experiment: ITC; 283 K; slightly lower affinity, Kd +70%; EMSA: 8 mM Tris pH 8.0, 15 mM HEPES pH 7.9, 40 mM NaCl, 40 mM KCl, 1.4 mM EDTA, 0.5 mM DTT, 9.95% glycerol, room temp; NMR: 50 mM Na phosphate, 50 mM NaCl, pH 6.0, 298 K; ITC: 283 K, 0.15 mM DNA in cell, buffer not stated (protein purified in NMR buffer); details: protein: recombinant; tags: C-terminal His6; blunt, self-complementary
T4 chain: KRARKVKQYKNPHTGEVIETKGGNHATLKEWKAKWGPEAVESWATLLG

[7] = biological target: T5, MvaTctd N100A (Pseudomonas aeruginosa PAO1, UniProt Q9HW86 77-124, N100A); experiment: ITC; 283 K; EMSA: 8 mM Tris pH 8.0, 15 mM HEPES pH 7.9, 40 mM NaCl, 40 mM KCl, 1.4 mM EDTA, 0.5 mM DTT, 9.95% glycerol, room temp; NMR: 50 mM Na phosphate, 50 mM NaCl, pH 6.0, 298 K; ITC: 283 K, 0.15 mM DNA in cell, buffer not stated (protein purified in NMR buffer); details: protein: recombinant; tags: C-terminal His6; blunt, self-complementary
T5 chain: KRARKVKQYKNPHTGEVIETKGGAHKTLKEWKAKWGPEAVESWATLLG

[8] = biological target: T6, MvaTctd R80A (Pseudomonas aeruginosa PAO1, UniProt Q9HW86 77-124, R80A); experiment: as above; details: protein: recombinant; tags: C-terminal His6; blunt, self-complementary
T6 chain: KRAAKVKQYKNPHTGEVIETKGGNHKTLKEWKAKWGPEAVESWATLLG

[9] = biological target: T7, MvaTctd K105A (Pseudomonas aeruginosa PAO1, UniProt Q9HW86 77-124, K105A); experiment: as above; details: protein: recombinant; tags: C-terminal His6; blunt, self-complementary
T7 chain: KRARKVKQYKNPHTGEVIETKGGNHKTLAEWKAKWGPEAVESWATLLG

[10] = biological target: T8, MvaTctd WT (Pseudomonas aeruginosa PAO1, UniProt Q9HW86 77-124); experiment: as above; details: protein: recombinant; tags: C-terminal His6; blunt, self-complementary
T8 chain: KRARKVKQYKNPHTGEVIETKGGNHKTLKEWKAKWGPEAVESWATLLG

[11] = biological target: T9, MvaTctd K97A (Pseudomonas aeruginosa PAO1, UniProt Q9HW86 77-124, K97A); experiment: NMR titration; similar to WT; EMSA: 8 mM Tris pH 8.0, 15 mM HEPES pH 7.9, 40 mM NaCl, 40 mM KCl, 1.4 mM EDTA, 0.5 mM DTT, 9.95% glycerol, room temp; NMR: 50 mM Na phosphate, 50 mM NaCl, pH 6.0, 298 K; ITC: 283 K, 0.15 mM DNA in cell, buffer not stated (protein purified in NMR buffer); details: protein: recombinant; tags: C-terminal His6; blunt, self-complementary
T9 chain: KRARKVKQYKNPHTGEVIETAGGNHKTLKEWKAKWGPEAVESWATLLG

[12] = biological target: T10, MvaTctd K81A (Pseudomonas aeruginosa PAO1, UniProt Q9HW86 77-124, K81A); experiment: as above; details: protein: recombinant; tags: C-terminal His6; blunt, self-complementary
T10 chain: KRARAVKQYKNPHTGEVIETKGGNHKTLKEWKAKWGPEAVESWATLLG

## AAATATAT (double strand) [8-mer AAATATAT]
[1]
  binding signal (PBM E-score (-0.5 to 0.5)): 0.482

## AATATATA (double strand) [8-mer AATATATA]
[1]
  binding signal (PBM E-score (-0.5 to 0.5)): 0.486

## AATATATT (double strand) [8-mer AATATATT]
[1]
  binding signal (PBM E-score (-0.5 to 0.5)): 0.485

## AATATTAA (double strand) [8-mer AATATTAA]
[1]
  binding signal (PBM E-score (-0.5 to 0.5)): 0.478

## ATATAATA (double strand) [8-mer ATATAATA]
[1]
  binding signal (PBM E-score (-0.5 to 0.5)): 0.484

## ATATATAA (double strand) [8-mer ATATATAA]
[1]
  binding signal (PBM E-score (-0.5 to 0.5)): 0.487

## ATATATAT (double strand) [8-mer ATATATAT]
[1]
  binding signal (PBM E-score (-0.5 to 0.5)): 0.491

## ATATATTA (double strand) [8-mer ATATATTA]
[1]
  binding signal (PBM E-score (-0.5 to 0.5)): 0.489

## ATATTAAT (double strand) [8-mer ATATTAAT]
[1]
  binding signal (PBM E-score (-0.5 to 0.5)): 0.484

## CCGCAGGTGGCTGAACAGGCCGTGCGCTGGCTGGTCGAGCTGCAGGGCGGCGCCGACGACGAACGCCTGCGCCAGGCCTGGCAGCGCTGGCGCCAGGCGGCCCCGGAACACGAGCAGGCCTGGCGCCACATCGAGGCGGTCAACCAGCGCCTGGCCGGGATAGGCACGCCACTGGCCCTGGCCGCCATCAACGCACCGCATTCG (double strand) [PA3900 204 bp fragment]
[2]
  Kd: 154 nM

## PA3900 204 bp fragment
[3]; apparent Kd
  Kd: 154 nM

## PA3900 204 bp fragment, unlabeled
[4]
  binding (fold molar excess): > 200

## TATATATA (double strand) [8-mer TATATATA]
[1]
  binding signal (PBM E-score (-0.5 to 0.5)): 0.493

## TATATTAA (double strand) [8-mer TATATTAA]
[1]
  binding signal (PBM E-score (-0.5 to 0.5)): 0.482

## TATTAATA (double strand) [8-mer TATTAATA]
[1]
  binding signal (PBM E-score (-0.5 to 0.5)): 0.481

## TATTATAA (double strand) [8-mer TATTATAA]
[1]
  binding signal (PBM E-score (-0.5 to 0.5)): 0.48

## TTAATTAA (double strand) [8-mer TTAATTAA]
[1]
  binding signal (PBM E-score (-0.5 to 0.5)): 0.481

## TTATATAA (double strand) [8-mer TTATATAA]
[1]
  binding signal (PBM E-score (-0.5 to 0.5)): 0.483

## cupA1 promoter 340 bp
[3]
  Kd: 57 nM

B1: 3AT (dsDNA)
DNA 1: CGCATATATGCG
DNA 2: CGCATATATGCG
[5]
  binding signal: > 10 fold Kd increase vs WT
[6]
  binding signal: ~1.7 fold Kd increase vs WT
[7]
  binding signal: > 3 fold Kd increase vs WT
[8]
  binding signal: > 10 fold Kd increase vs WT
[9]
  binding signal: > 3 fold Kd increase vs WT
[10]
  Kd: ~10700 nM
[11]
  binding result: binds
[12]
  binding result: binds

B2: GC-rich d(CGCGCGCG)2 (dsDNA)
DNA 1: CGCGCGCG
DNA 2: CGCGCGCG
[10]
  Kd: ~360000 nM
